Data set [1] concerns the molecule itself. Briefly: SEC; propensity of purified recombinant rat TrxR1 variants to form oligomers (Supplementary Figure S8); oligomers separated on Superdex G200 at 4 °C.
Data set [2] deals with the molecule itself. As to the kind of experiment: native gel or EMSA; purified recombinant TrxR1 tetramers, native PAGE under reducing conditions.
Data set [3] concerns the molecule itself. As to the kind of experiment: native gel or EMSA; purified recombinant TrxR1 tetramers, native PAGE under oxidized (non-reducing) conditions; dimers to tetramer.

Substitutions are numbered along the chain they refer to.

B1: recombinant rat TrxR1 W114E (enzyme)
chain: MNDSKDAPKSYDFDLIIIGGGSGGLAAAKEAAKFDKKVMVLDFVTPTPLGTRWGLGGTCVNVGCIPKKLMHQAALLGQALKDSRNYGWKLEDTVKHDWEKMTESVQNHIGSLNEGYRVALREKKVVYENAYGKFIGPHKIMATNNKGKEKVYSAERFLIATGERPRYLGIPGDKEYCISSDDLFSLPYCPGKTLVVGASYVALECAGFLAGIGLDVTVMVRSILLRGFDQDMANKIGEHMEEHGIKFIRQFVPTKIEQIEAGTPGRLKVTAKSTNSEETIEDEFNTVLLAVGRDSCTRTIGLETVGVKINEKTGKIPVTDEEQTNVPYIYAIGDILEGKLELTPVAIQAGRLLAQRLYGGSTVKCDYDNVPTTVFTPLEYGCCGLSEEKAVEKFGEENIEVYHSFFWPLEWTVPSRDNNKCYAKVICNLKDNERVVGFHVLGPNAGEVTQGFAAALKCGLTKQQLDSTIGIHPVCAEIFTTLSVTKRSGGDILQSGCUG
modifications: selenocysteine (Sec, U) at 498
notes: thioredoxin reductase 1, rat, with Trp114 changed to Glu; also called Glu114; source: E. coli BL21 (DE3) gor-, purified (2'5'-ADP Sepharose, Superdex G200 size exclusion)
As for B1, in data set [1], the binding result is “binds”.

B2: recombinant rat TrxR1 W114G (enzyme)
chain: B1 chain with E114G
modifications: selenocysteine (Sec, U) at 498
notes: thioredoxin reductase 1, rat, with Trp114 changed to Gly; also called Gly114; source: E. coli BL21 (DE3) gor-, purified (2'5'-ADP Sepharose, Superdex G200 size exclusion)
Regarding B2, the binding result in data set [1] is “binds”.

B3: recombinant rat thioredoxin reductase 1 (TrxR1), wild type (enzyme)
chain: B1 chain with E114W
modifications: selenocysteine (Sec, U) at 498
notes: thioredoxin reductase 1, rat, expressed from a pET-TRSTER-derived plasmid with pSUABC; FAD-containing homodimer; tetramers (two dimers) were purified from the same preparation in the absence of reductant; In the tetramer two of the four Trp114 are modified (oxidised) and linked; also called WT; wild-type TrxR1; source: E. coli BL21 (DE3) gor-, purified (2'5'-ADP Sepharose, Superdex G200 size …)
Regarding B3, the “stoichiometry N” value in data set [2] worked out at 2; in data set [3] it was 4.

B4: recombinant rat TrxR1 W114F (enzyme)
chain: B1 chain with E114F
modifications: selenocysteine (Sec, U) at 498
notes: thioredoxin reductase 1, rat, with Trp114 changed to Phe; also called Phe114; source: E. coli BL21 (DE3) gor-, purified (2'5'-ADP Sepharose, Superdex G200 size exclusion)
Consider B4, for which the binding result in data set [1] is on record as “binds”.

B5: recombinant rat TrxR1 W114R (enzyme)
chain: B1 chain with E114R
modifications: selenocysteine (Sec, U) at 498
notes: thioredoxin reductase 1, rat, with Trp114 changed to Arg; also called Arg114; source: E. coli BL21 (DE3) gor-, purified (2'5'-ADP Sepharose, Superdex G200 size exclusion)
On to B5, for which the binding result in data set [1] is given as “binds”.

Source of the values: PMC4669772, “The conserved Trp114 residue of thioredoxin reductase 1 has a redox sensor-like function triggering oligomerization and crosslinking upon oxidative stress related to cell death” (Cell Death & Disease, 2015).
